In the Immune Epitope Database (IEDB) one finds IC50 data, which are given here for 79 sequences.

One assay concerns the target HLA-A*02:01. Kind of assay: IEDB peptide-MHC binding, cellular MHC/competitive/fluorescence; ≥ and ≤ were set here for values at or beyond the usual limits of such assays. The following applies: source organism: Influenza A virus.
In turn, ITFMQALQLL yielded an IC50 of 7.71 µM.

Still in this assay, the particulars now being: source organism: Vaccinia virus WR.
Sequence GIRVKHSFSA showed an IC50 of 6.87 µM.

The sequence GIVLSNTST came in with an IC50 of 20.2 µM.

Take GIVLSNTSTA: the IC50 was 13.1 µM.

With GTETKITFA, the IC50 was found to be 60.6 µM.

GTLDFFKQT came in with a concentration for half-maximal inhibition (IC50) of 49.5 µM.

Take GTVINEDIV: the IC50 is 35.7 µM.

Sequence GVIFLISVI displayed a concentration for half-maximal inhibition (IC50) of 12.1 µM.

In the case of GVIFLISVIV, the IC50 was 5.83 µM. Against the preceding sequence, the IC50 is about 2.1-fold lower.

In turn, GVKIRTKIPL came in with an IC50 of 12.7 µM. This IC50 is about 2.2-fold higher than that of the sequence before.

GVSDLISTEI: the concentration for half-maximal inhibition (IC50) amounted to 41.8 µM.

Regarding HASPTLFNA, the IC50 is 8.95 µM.

On to HIDYNEDMIT, for which the IC50 is 51.4 µM. Against the preceding sequence, the IC50 is about 5.7-fold higher.

In turn, HIHKILTREM had an IC50 of 16.2 µM.

Regarding HIIIVALTI, the IC50 turned out to be 7.72 µM. Compared with the last sequence, the IC50 is about 2.1-fold lower.

HLATPINSRI gave an IC50 of 7.9 µM.

HLLISFDST: the IC50 was determined as 28.1 µM. This IC50 lies about 3.6-fold higher than the previous one.

Turning to HLNPSRIRIT, the IC50 is no less than 70 µM.

In turn, HLRDQSIKI had an IC50 of 7.25 µM.

For the sequence HLSCKSGFT, the concentration for half-maximal inhibition (IC50) is 6.23 µM.

Consider HMLKLQARNI, for which the IC50 came to 24 µM.

IAFSSGTVI gave a concentration for half-maximal inhibition (IC50) of 43.9 µM.

For the sequence IAHLLEHLL, the IC50 turned out to be 14.1 µM.

IAHLLEHLLI gave an IC50 of 15.7 µM.

IAMKVIQGI: the IC50 came to 7.73 µM.

The sequence IATYIDALA came in with a concentration for half-maximal inhibition (IC50) of 12.4 µM.

Regarding IIDFLEGALI, the IC50 is no less than 70 µM.

As for IIERSKKFI, the half-inhibitory concentration (IC50) came out at 5.31 µM.

In turn, IIHTGCSQVM registered an IC50 of 12.4 µM.

For IIIVALTIM, the half-inhibitory concentration (IC50) amounted to 9.64 µM.

Sequence IIKKNDIVRV had an IC50 of 48.4 µM.

As for IINRDIIVI, the IC50 stood at 10.8 µM.

Consider IIPSSIPVST, for which the IC50 amounted to 17.1 µM.

Turning to IIRQRNDEI, the IC50 was 52.8 µM.

Turning to IIRRSGCRI, the IC50 is no less than 70 µM.

In turn, IIRYPVKRI had an IC50 of 10.1 µM.

In turn, IIYNANKLI had an IC50 of 17 µM.

Sequence ILANRDSTL returned an IC50 of 11 µM.

Sequence ILFLLFVCI had an IC50 of 5.69 µM.

The sequence ILHRLHEILT gave an IC50 of 12.6 µM.

Take ILKPRIDKTM: the IC50 is 49.3 µM.

ILRSIEGEL: the IC50 amounted to 8.99 µM. Against the preceding sequence, the IC50 is about 5.5-fold lower.

The sequence ILSIVGFRPT had an IC50 of 38.1 µM.

ILYKVRKNFT came in with an IC50 of 7.65 µM. Compared with the last sequence, the IC50 is about 5-fold lower.

As to IMKTPGNTDA, the 50% inhibitory concentration (IC50) was 9.42 µM.

IMSLNGKKHT returned an IC50 of no less than 70 µM.

As to IQAKTKNFT, the IC50 was no less than 70 µM.

Regarding IQESFIRFT, the IC50 worked out at 36.2 µM.

IQETIRSDT registered a 50% inhibitory concentration (IC50) of 49.6 µM.

In turn, IQGKNKRKRV displayed a 50% inhibitory concentration (IC50) of no less than 70 µM.

Sequence IQKSSSIDV yielded a half-inhibitory concentration (IC50) of 15.9 µM.

Turning to IQQLYEFRKV, the IC50 came to 8.74 µM.

For ITDAAVAVA, the half-maximal inhibitory concentration (IC50) came out at 8.52 µM.

Take ITDAAVAVAA: the IC50 is 6.51 µM. This IC50 and that of the sequence before are within 1.5-fold of each other.

For ITFALKKLI, the IC50 was no less than 70 µM.

ITPDVIINST yielded an IC50 of no less than 70 µM.

ITTMDGDKL: the IC50 was determined as 15 µM. This counts as double-digit micromolar.

Sequence ITVTVTFNPV came in with an IC50 of 6.42 µM.

Regarding IVALTIMGVI, the IC50 stood at 5.77 µM.

Sequence IVARRKDQT showed an IC50 of no less than 70 µM.

IVDDDFISA gave an IC50 of 11.5 µM.

In turn, IVEHLRDQSI showed an IC50 of no less than 70 µM.

IVGLDLENL displayed an IC50 of 14.2 µM.

IVISPMGKLT returned an IC50 of 52.6 µM.

In the case of IVIYPNFSKA, the half-inhibitory concentration (IC50) is 9.76 µM.

Consider IVLPNKVRI, for which the IC50 came to 35.1 µM.

IVLSNTSTA displayed an IC50 of 16.9 µM.

Consider IVMTPSPFYT, for which the IC50 was determined as 6.46 µM.

Sequence IVRCCAGDDI displayed an IC50 of 10.7 µM.

In the case of IVRDMLVNRM, the IC50 was determined as 14.4 µM.

For IVRLNQCMSA, the IC50 was 7.46 µM.

IVTLQKVLHV had an IC50 of 32.9 µM.

Sequence IVVELEPSLA came in with an IC50 of 9.09 µM.

In turn, IVVYNPSTM displayed a half-inhibitory concentration (IC50) of 56.2 µM.

In the case of IVWEKKSLVT, the IC50 turned out to be 20.7 µM.

In the case of KALSDACKKI, the IC50 is 14.3 µM.

The sequence KAMCNTRDT yielded an IC50 of 51.6 µM.

On to KAVIEYDDI, for which the IC50 came to 37.6 µM.

KIAISSLNKL gave an IC50 of 36.6 µM.

In general, IC50 refers to the concentration that inhibits the measured activity by half.
